The values that follow come from patent US8652790B2, “Conformational entropy in molecular recognition” (The Trustees of the University of Pennsylvania, priority 2007, dated 2014).

The target in experiment [1] is T1, calmodulin (Homo sapiens, UniProt P0DP23). The experiment is described as follows: NMR relaxation: backbone dynamics (order parameters) of calmodulin in complex with target domains. The conditions noted are these: average ± standard deviation, 35° C.; for <O^2CαCO>: CO—Cα bond vectors of calmodulin in complex; for <O^2NH>: N—H bond vectors of calmodulin in complex. The text has this: The sub-nanosecond (sub-ns) dynamics of the polypeptide backbone of calmodulin in the six complexes were probed using NMR relaxation techniques. The degree of spatial restriction of each motional probe was assigned a number between 0, corresponding to complete isotropic disorder, and 1, corresponding to a fixed orientation in the molecular frame. This parameter is the squared generalized order parameter (O^2) as it applies to the amide N—H bond (O^2NH), the Cα—C′ bond (O^2cαcO) and the methyl symmetry axis (O^2axis). O^2NH parameters at amide nitrogen sites were obtained from measurements of ^15N dipolar relaxation. Farrow, N. A. et al. Backbone dynamics of a free and a phosphopeptide-complexed Src homology-2 domain studied by ^15N NMR relaxation. Biochemistry 33, 5984-6003 (1994). O^2cαcO parameters were obtained from measurement of transverse cross-correlated relaxation between ^13CO chemical shift anisotropy and the ^13CO—^13Cα dipolar interactions. Wang, T., Cai, S. & Zuiderweg, E. R. Temperature dependence of anisotropic protein backbone dynamics. J. Am. Chem. Soc. […] The motion of methyl groups (O^2axis) of calmodulin side chains were characterized using ^2H spin relaxation methods. Muhandiram, D. R. et al. Measurement of H-2 T-1 and T-1p relaxation-times in uniformly C-13-Labeled and fractionally H-2-labeled proteins in solution. J. Am. Chem. Soc. 117, 11536-11544 (1995).
O^2axis parameters were determined from T1 and T1p deuterium relaxation (Muhandiram, D. R. et al. Measurement of H-2 T-1 and T-1p relaxation-times in uniformly C-13-Labeled and fractionally H-2-labeled proteins in solution. J. Am. Chem. Soc. 117, 11536-11544 (1995)) measured at two magnetic fields. Rotational correlation times and O^2NH were determined from ^15N relaxation (Farrow, N. A. et al. Backbone dynamics of a free and a phosphopeptide-complexed Src homology-2 domain studied by ^15N NMR relaxation. Biochemistry 33, 5984-6003 (1994)) obtained at two magnetic fields. O^2CαCO parameters were determined by transverse cross-correlated relaxation. Wang, T., Cai, S. & Zuiderweg, E. R. Temperature dependence of anisotropic protein backbone dynamics. J. Am. Chem. Soc. […] All measurements were made at 35° C. Model-free parameters (Lipari, G. & Szabo, A. Model-free approach to the interpretation of nuclear magnetic-resonance relaxation in macromolecules. 1. Theory and range of validity. J. Am. Chem. Soc. 104, 4546-4559 (1982)) were determined using a grid search approach (Dellwo, M J. & Wand, A. J. Model-independent and model-dependent analysis of the global and internal dynamics of cyclosporine-A. J. Am. Chem. Soc. 111, 4571-4578 (1989)) using a quadrupolar coupling constant of 167 kHz, an effective N—H bond length of 1.04 Å and ^15N tensor breadth of 170 p.p.m. […] The model-free parameters have been deposited in the Biological Magnetic Resonance Data Bank (“BioMagResBank,” Eldon L. Ulrich; Hideo Akutsu; Jurgen F. Doreleijers; Yoko Harano; Yannis E. Ioannidis; Jundong Lin; Miron Livny; Steve Mading; Dimitri Maziuk; Zachary Miller; Eiichi Nakatani; Christopher F. Schulte; David E. Tolmie; R. Kent Wenger; Hongyang Yao; John L. Markley; Nucleic Acids Research 36, D402-D408 (2007) doi: 10.1093/nar/gkm957).

Experiment [2] has as its target T1, calmodulin. Nature of the experiment: Uncalibrated estimate of conformational entropy of binding from methyl group dynamics of CaM and target domain. Further details: made in house. To be noted: for Δ O^2axis Target: O^2axis of 0.101 assumed for the free target domain; for Δ O^2axis CaM: free CaM is the reference state; for ΔSfast^conf: harmonic oscillator plus fast minor rotamer states; for ΔStotal^conf: includes classical term from slow-exchange minor cross peaks; for Normalized Δ O^2axis: normalized to number of amino acids in calmodulin (148) and target domain. From the text:
Using deuterium NMR relaxation methods, fast motion of the methyl-bearing side-chains of the target domains in the six CaM complexes were examined. Muhandiram, D. R. et al., Measurement of H-2 T-1 and T-1p relaxation-times in uniformly C-13-Labeled and fractionally H-2-labeled proteins in solution. J. Am. Chem. Soc. 117, 11536-11544 (1995).
Initially estimates of the conformational entropy of the target domains to the free energy of binding to CaM was obtained using the simple harmonic oscillator model. Li, Z., Raychaudhuri, S., & Wand, A. J., Insights into the local residual entropy of proteins provided by NMR relaxation. Prot. Sci. 5, 2647-2650 (1996). It is assumed that the dynamics of the free unstructured target domain are uniform and correspond to an O^2axis of 0.1. […] This was estimated using a previously described model. Lee, A. L. et al., Temperature dependence of the internal dynamics of a calmodulin peptide complex. Biochemistry 41, 13814-13825 (2002). […] Such heterogeneity would correspond to conformational entropy contributed by states that are not averaged on the NMR chemical shift timescale.
To compare dynamics in the various complexes, we employ a normalization procedure to account for variation in the number of methyl sites in CaM whose motion could be quantified and to account for the fact that, although fully resolved, the number of residues in the target domains ranges between 20 and 26. A simple average was employed. The apparent change in conformational entropy was then calculated as above. To complete the solution of equation (5), the binding entropies obtained by isothermal titration calorimetry were used and calculated the change in solvent entropy using the known structures of free CaM and the five complexes. Kainosho, M. et al., Optimal isotope labelling for NMR protein structure determinations. Nature 440, 52-57 (2006); Aoyagi, M et al., Structural basis for endothelial nitric oxide synthase binding to calmodulin. The EMBO journal 22, 766-775 (2003); Meador, W. E., Means, A. R., & Quiocho, F. A., Target enzyme recognition by calmodulin: 2.4 A structure of a calmodulin-peptide complex. […] Nat. Struct. Biol. 6, 819-824 (1999); Valentine, K. G. et al., The crystal structure and internal dynamics of calmodulin complexed with the calmodulin binding domain of neuronal nitric oxide synthase. Biochemistry, submitted (2007). The empirically determined relationship between changes in accessible surface area and the entropy of solvent is employed. Hilser, V. J. et al., A statistical thermodynamic model of the protein ensemble. Chem. Rev. 106, 1545-1558 (2006). The change in solvent entropy by assuming an extended fully solvated structure for the dissociated domains (see Methods) was calculated. […] Gaboriaud, C. et al., Hydrophobic cluster analysis: an efficient new way to compare and analyse amino acid sequences. FEBS letters 224, 149-155 (1987). […] The surface area of a sphere of equivalent volume of the side-chains in the putative hydrophobic cluster was used as a basis for the solvent entropy calculation. A further correction for the reduction in conformational entropy of the compact free CaMKKα(p) target domain was also applied (see Methods). […] Marlow, M. S. & Wand, A. J., Conformational dynamics of calmodulin in complex with the calmodulin-dependent kinase kinase alpha calmodulin-binding domain. Biochemistry 45, 8732-8741 (2006).

On to “(COOH-FPNGFSRKRLMSKVLIVTTWSPLL [CaMKKα(p)]”, for which, in experiment [1], the “<O^2CαCO>” value is listed as 0.79 ± 0.21 and the “<O^2NH>” value stood at 0.93 ± 0.08. Also, in experiment [2], the “Δ O^2axis Target” value is 0.329, the “Δ O^2axis CaM” value is 0.096, the “ΔSfast^conf” value was 48.2921 kcal/mol and the “ΔStotal^conf” value was 49.7978 kcal/mol. In experiment [2], the “Normalized Δ O^2axis” value is 22.632.
With “AKSKWKQAFNATAVVRHMRKLQ (listed as Homo sapiens) [CaMKI(p)]”, in experiment [1], the “<O^2CαCO>” value amounted to 0.88 ± 0.14 and the “<O^2NH>” value worked out at 0.94 ± 0.08. Besides, in experiment [2], the “Δ O^2axis Target” value is recorded as 0.555, the “Δ O^2axis CaM” value is 0.107, the “ΔSfast^conf” value was 60.2916 kcal/mol and the “ΔStotal^conf” value was 63.1334 kcal/mol. Further, the “Normalized Δ O^2axis” value in experiment [2] is given as 28.046.
KRRAIGFKKLAEAVKFSAKLMGQ [nNOS(p)]: in experiment [1], the “<O^2CαCO>” value is listed as 0.85 ± 0.16 and the “<O^2NH>” value came out at 0.92 ± 0.08. For the same substance, in experiment [2], the “Δ O^2axis Target” value is 0.528, the “Δ O^2axis CaM” value was 0.049, the “ΔSfast^conf” value was 41.5545 kcal/mol and the “ΔStotal^conf” value was 46.7409 kcal/mol. The “Normalized Δ O^2axis” value in experiment [2] is 19.396.
Turning to QTEKMWQRLKGILRSLVKQ [PDE(p)], the “<O^2NH>” value in experiment [1] amounted to 0.92 ± 0.06.
Regarding RKKTFKEVANAVKISASLMG [eNOS(p)], in experiment [2], the “Δ O^2axis Target” value is reported as 0.567, the “Δ O^2axis CaM” value is listed as 0.081, the “ΔSfast^conf” value is 50.278 kcal/mol and the “ΔStotal^conf” value is 53.5045 kcal/mol. Also, the “Normalized Δ O^2axis” value in experiment [2] is recorded as 23.328.
